{"source": "paper PMC3340446", "key": {"[1]": {"target": "Trypanosoma brucei AlkB homolog (TbABH-His6) (Trypanosoma brucei brucei (strain 427 genomic DNA))", "experiment": "native gel or EMSA"}, "[2]": {"target": "Trypanosoma brucei AlkB homolog (TbABH-His6) (Trypanosoma brucei brucei (strain 427 genomic DNA))", "experiment": "SEC"}}, "data": [{"substance": "Trypanosoma brucei AlkB homolog (TbABH-His6) (enzyme)", "values": [{"measurement": "stoichiometry N", "setting": "[1]", "result": 4}, {"measurement": "stoichiometry N", "setting": "[2]", "result": 2}]}]}
